Measured values published in publication PMC11574045, “A cofactor-induced repressive type of transcription factor condensation can be induced by synthetic peptides to suppress tumorigenesis” (The EMBO Journal, 2024).

B1: GPS2 (protein, UniProt Q13227 1-327, looked up)
G protein pathway suppressor 2: MPALLERPKLSNAMARALHRHIMMERERKRQEEEEVDKMMEQKMKEEQERRKKKEMEERMSLEETKEQILKLEEKLLALQEEKHQLFLQLKKVLHEEEKRRRKEQSDLTTLTSAAYQQSLTVHTGTHLLSMQGSPGGHNRPGTLMAADRAKQMFGPQVLTTRHYVGSAAAFAGTPEHGQFQGSPGGAYGTAQPPPHYGPTQPAYSPSQQLRAPSAFPAVQYLSQPQPQPYAVHGHFQPTQTGFLQPGGALSLQKQMEHANQQTGFSDSSSLRPMHPQALHPAPGLLASPQLPVQMQPAGKSGFAATSQPGPRLPFIQHSQNPRFYHK
B2: GLIS3 (protein, UniProt Q8NEA6 1-775, looked up)
Zinc finger protein GLIS3: MMVQRLGLISPPASQVSTACNQISPSLQRAMNAANLNIPPSDTRSLISRESLASTTLSLTESQSASSMKQEWSQGYRALPSLSNHGSQNGLDLGDLLSLPPGTSMSSNSVSNSLPSYLFGTESSHSPYPSPRHSSTRSHSARSKKRALSLSPLSDGIGIDFNTIIRTSPTSLVAYINGSRASPANLSPQPEVYGHFLGVRGSCIPQPRPVPGSQKGVLVAPGGLALPAYGEDGALEHERMQQLEHGGLQPGLVNHMVVQHGLPGPDSQSAGLFKTERLEEFPGSTVDLPPAPPLPPLPPPPGPPPPYHAHAHLHHPELGPHAQQLALPQATLDDDGEMDGIGGKHCCRWIDCSALYDQQEELVRHIEKVHIDQRKGEDFTCFWAGCPRRYKPFNARYKLLIHMRVHSGEKPNKCTFEGCEKAFSRLENLKIHLRSHTGEKPYLCQHPGCQKAFSNSSDRAKHQRTHLDTKPYACQIPGCTKRYTDPSSLRKHVKAHSSKEQQARKKLRSSTELHPDLLTDCLTVQSLQPATSPRDAAAEGTVGRSPGPGPDLYSAPIFSSNYSSRSGTAAGAVPPPHPVSHPSPGHNVQGSPHNPSSQLPPLTAVDAGAERFAPSAPSPHHISPRRVPAPSSILQRTQPPYTQQPSGSHLKSYQPETNSSFQPNGIHVHGFYGQLQKFCPPHYPDSQRIVPPVSSCSVVPSFEDCLVPTSMGQASFDVFHRAFSTHSGITVYDLPSSSSSLFGESLRSGAEDATFLQISTVDRCPSQLSSVYTEG
B3: GTF2A1 (protein, UniProt P52655 2-376, looked up)
Transcription initiation …: ANSANTNTVPKLYRSVIEDVINDVRDIFLDDGVDEQVLMELKTLWENKLMQSRAVDGFHSEEQQLLLQVQQQHQPQQQQHHHHHHHQQAQPQQTVPQQAQTQQVLIPASQQATAPQVIVPDSKLIQHMNASNMSAAATAATLALPAGVTPVQQILTNSGQLLQVVRAANGAQYIFQPQQSVVLQQQVIPQMQPGGVQAPVIQQVLAPLPGGISPQTGVIIQPQQILFTGNKTQVIPTTVAAPTPAQAQITATGQQQPQAQPAQTQAPLVLQVDGTGDTSSEEDEDEEEDYDDDEEEDKEKDGAEDGQVEEEPLNSEDDVSDEEGQELFDTENVVVCQYDKIHRSKNKWKFHLKDGIMNLNGRDYIFSKAIGDAEW
B4: GTF2I (protein, UniProt P78347 2-998, looked up)
General transcription factor …: AQVAMSTLPVEDEESSESRMVVTFLMSALESMCKELAKSKAEVACIAVYETDVFVVGTERGRAFVNTRKDFQKDFVKYCVEEEEKAAEMHKMKSTTQANRMSVDAVEIETLRKTVEDYFCFCYGKALGKSTVVPVPYEKMLRDQSAVVVQGLPEGVAFKHPENYDLATLKWILENKAGISFIIKRPFLEPKKHVGGRVMVTDADRSILSPGGSCGPIKVKTEPTEDSGISLEMAAVTVKEESEDPDYYQYNIQAGPSETDDVDEKQPLSKPLQGSHHSSEGNEGTEMEVPAEDSTQHVPSETSEDPEVEVTIEDDDYSPPSKRPKANELPQPPVPEPANAGKRKVREFNFEKWNARITDLRKQVEELFERKYAQAIKAKGPVTIPYPLFQSHVEDLYVEGLPEGIPFRRPSTYGIPRLERILLAKERIRFVIKKHELLNSTREDLQLDKPASGVKEEWYARITKLRKMVDQLFCKKFAEALGSTEAKAVPYQKFEAHPNDLYVEGLPENIPFRSPSWYGIPRLEKIIQVGNRIKFVIKRPELLTHSTTEVTQPRTNTPVKEDWNVRITKLRKQVEEIFNLKFAQALGLTEAVKVPYPVFESNPEFLYVEGLPEGIPFRSPTWFGIPRLERIVRGSNKIKFVVKKPELVISYLPPGMASKINTKALQSPKRPRSPGSNSKVPEIEVTVEGPNNNNPQTSAVRTPTQTNGSNVPFKPRGREFSFEAWNAKITDLKQKVENLFNEKCGEALGLKQAVKVPFALFESFPEDFYVEGLPEGVPFRRPSTFGIPRLEKILRNKAKIKFIIKKPEMFETAIKESTSSKSPPRKINSSPNVNTTASGVEDLNIIQVTIPDDDNERLSKVEKARQLREQVNDLFSRKFGEAIGMGFPVKVPYRKITINPGCVVVDGMPPGVSFKAPSYLEISSMRRILDSAEFIKFTVIRPFPGLVINNQLVDQSESEGPVIQESAEPSQLEVPATEEIKETDGSSQIKQEPDPTW
B5: GLI1 (protein, UniProt P08151 1-1106, looked up)
Zinc finger protein GLI1: MFNSMTPPPISSYGEPCCLRPLPSQGAPSVGTEGLSGPPFCHQANLMSGPHSYGPARETNSCTEGPLFSSPRSAVKLTKKRALSISPLSDASLDLQTVIRTSPSSLVAFINSRCTSPGGSYGHLSIGTMSPSLGFPAQMNHQKGPSPSFGVQPCGPHDSARGGMIPHPQSRGPFPTCQLKSELDMLVGKCREEPLEGDMSSPNSTGIQDPLLGMLDGREDLEREEKREPESVYETDCRWDGCSQEFDSQEQLVHHINSEHIHGERKEFVCHWGGCSRELRPFKAQYMLVVHMRRHTGEKPHKCTFEGCRKSYSRLENLKTHLRSHTGEKPYMCEHEGCSKAFSNASDRAKHQNRTHSNEKPYVCKLPGCTKRYTDPSSLRKHVKTVHGPDAHVTKRHRGDGPLPRAPSISTVEPKREREGGPIREESRLTVPEGAMKPQPSPGAQSSCSSDHSPAGSAANTDSGVEMTGNAGGSTEDLSSLDEGPCIAGTGLSTLRRLENLRLDQLHQLRPIGTRGLKLPSLSHTGTTVSRRVGPPVSLERRSSSSSSISSAYTVSRRSSLASPFPPGSPPENGASSLPGLMPAQHYLLRARYASARGGGTSPTAASSLDRIGGLPMPPWRSRAEYPGYNPNAGVTRRASDPAQAADRPAPARVQRFKSLGCVHTPPTVAGGGQNFDPYLPTSVYSPQPPSITENAAMDARGLQEEPEVGTSMVGSGLNPYMDFPPTDTLGYGGPEGAAAEPYGARGPGSLPLGPGPPTNYGPNPCPQQASYPDPTQETWGEFPSHSGLYPGPKALGGTYSQCPRLEHYGQVQVKPEQGCPVGSDSTGLAPCLNAHPSEGPPHPQPLFSHYPQPSPPQYLQSGPYTQPPPDYLPSEPRPCLDFDSPTHSTGQLKAQLVCNYVQSQQELLWEGGGREDAPAQEPSYQSPKFLGGSQVSPSRAKAPVNTYGPGFGPNLPNHKSGSYPTPSPCHENFVVGANRASHRAAAPPRLLPPLPTCYGPLKVGGTNPSCGHPEVGRLGGGPALYPPPEGQVCNPLDSLDLDNTQLDFVAILDEPQGLSPPPSHDQRGSSGHTPPPSGPPNMAVGNMSVLLRSLPGETEFLNSSA
B6: GLI4 (protein, UniProt P10075 1-376, looked up)
Zinc finger protein GLI4: MAALGDIQESPSVPSPVSLSSPGTPGTQHHEPQLHLHGHQHGSPGSSPKVLSQPSDLDLQDVEEVEIGRDTFWPDSEPKPEQAPRSPGSQAPDEGAGGALRSLLRSLPRRARCSAGFGPESSAERPAGQPPGAVPCAQPRGAWRVTLVQQAAAGPEGAPERAAELGVNFGRSRQGSARGAKPHRCEACGKSFKYNSLLLKHQRIHTGEKPYACHECGKRFRGWSGFIQHHRIHTGEKPYECGQCGRAFSHSSHFTQHLRIHNGEKPYKCGECGQAFSQSSNLVRHQRLHTGEKPYACSQCGKAFIWSSVLIEHQRIHTGEKPYECSDCGKAFRGRSHFFRHLRTHTGEKPFACGACGKAFGQSSQLIQHQRVHYRE
B7: GRHL3 (protein, UniProt Q8TE85 1-626, looked up)
Grainyhead-like protein 3 …: MSNELDFRSVRLLKNDPVNLQKFSYTSEDEAWKTYLENPLTAATKAMMRVNGDDDSVAALSFLYDYYMGPKEKRILSSSTGGRNDQGKRYYHGMEYETDLTPLESPTHLMKFLTENVSGTPEYPDLLKKNNLMSLEGALPTPGKAAPLPAGPSKLEAGSVDSYLLPTTDMYDNGSLNSLFESIHGVPPTQRWQPDSTFKDDPQESMLFPDILKTSPEPPCPEDYPSLKSDFEYTLGSPKAIHIKSGESPMAYLNKGQFYPVTLRTPAGGKGLALSSNKVKSVVMVVFDNEKVPVEQLRFWKHWHSRQPTAKQRVIDVADCKENFNTVEHIEEVAYNALSFVWNVNEEAKVFIGVNCLSTDFSSQKGVKGVPLNLQIDTYDCGLGTERLVHRAVCQIKIFCDKGAERKMRDDERKQFRRKVKCPDSSNSGVKGCLLSGFRGNETTYLRPETDLETPPVLFIPNVHFSSLQRSGGAAPSAGPSSSNRLPLKRTCSPFTEEFEPLPSKQAKEGDLQRVLLYVRRETEEVFDALMLKTPDLKGLRNAISEKYGFPEENIYKVYKKCKRGETSLLHPRLSRHPPPDCLECSHPVTQVRNMGFGDGFWRQRDLDSNPSPTTVNSLHFTVNSE
B8: GMNN (protein, UniProt O75496 1-209, looked up)
Geminin: MNPSMKQKQEEIKENIKNSSVPRRTLKMIQPSASGSLVGRENELSAGLSKRKHRNDHLTSTTSSPGVIVPESSENKNLGGVTQESFDLMIKENPSSQYWKEVAEKRRKALYEALKENEKLHKEIEQKDNEIARLKKENKELAEVAEHVQYMAELIERLNGEPLDNFESLDNQEFDSEEETVEDSLVEDSEIGTCAEGTVSSSTDAKPCI
B9: GTF2A1L (protein, UniProt Q9UNN4 1-478, looked up)
TFIIA-alpha and beta-like …: MACLNPVPKLYRSVIEDVIEGVRNLFAEEGIEEQVLKDLKQLWETKVLQSKATEDFFRNSIQSPLFTLQLPHSLHQTLQSSTASLVIPAGRTLPSFTTAELGTSNSSANFTFPGYPIHVPAGVTLQTVSGHLYKVNVPIMVTETSGRAGILQHPIQQVFQQLGQPSVIQTSVPQLNPWSLQATTEKSQRIETVLQQPAILPSGPVDRKHLENATSDILVSPGNEHKIVPEALLCHQESSHYISLPGVVFSPQVSQTNSNVESVLSGSASMAQNLHDESLSTSPHGALHQHVTDIQLHILKNRMYGCDSVKQPRNIEEPSNIPVSEKDSNSQVDLSIRVTDDDIGEIIQVDGSGDTSSNEEIGSTRDADENEFLGNIDGGDLKVPEEEADSISNEDSATNSSDNEDPQVNIVEEDPLNSGDDVSEQDVPDLFDTDNVIVCQYDKIHRSKNKWKFYLKDGVMCFGGRDYVFAKAIGDAEW

Tested on: HEK293FT cells transfected with TF library
Assay: Screening of TF condensates based on fluorescent puncta
Assay type: cell-based
Settings: Figure 1B numerical data; TF library screen, one value per transcriptional factor
Procedure, shortened: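 TF plasmids (final 1.6 μg/ml) reverse-transfected with PEI (4.8 μg/ml) into HEK293FT cells; after 60 h, cells cultured ±glucose for 12 h, fixed in 4% PFA and immunostained for Flag or GAL4 tags with Alexa 488 secondaries. Puncta scored by automated imaging of 50 random fields per well.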

Molecule | Z score of condensed fraction
B1 | -0.6135
B2 | 0.8153
B3 | 0.06864
B4 | 0.02684
B5 | 1.126
B6 | 0.3449
B7 | -0.6859
B8 | 0.2471
B9 | 3.206
